Target: T1, Cre recombinase (Punavirus P1)
T1 chain: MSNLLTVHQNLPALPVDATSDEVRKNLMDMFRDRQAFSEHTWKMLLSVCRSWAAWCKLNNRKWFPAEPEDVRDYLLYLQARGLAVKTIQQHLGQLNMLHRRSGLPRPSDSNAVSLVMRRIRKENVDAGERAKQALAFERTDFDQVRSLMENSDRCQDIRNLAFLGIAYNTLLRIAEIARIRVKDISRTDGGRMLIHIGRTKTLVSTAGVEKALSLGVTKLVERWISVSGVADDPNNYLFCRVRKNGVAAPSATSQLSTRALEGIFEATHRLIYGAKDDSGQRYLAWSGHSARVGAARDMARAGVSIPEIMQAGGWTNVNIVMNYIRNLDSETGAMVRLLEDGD
Experiment: cell_activity; as above
Description: Similar to the development of the original LoxPsym site by Hoess et al. (1986 J Cell Biochem), we edited the spacer of the LoxP site to obtain new non-directional recombination sites. In doing so, we focused on altering the first three nucleotides of the spacer (FIG. 2), as it was shown before that changing the nucleotides at position 4 and 5 of the spacer (T and A respectively) prevents recombination (Hoess et al 1986). The last three nucleotides were adapted accordingly to ensure the spacer remained palindromic. As such, we were able to design maximally 63 new potential LoxPsym sites. To test if the Cre enzyme was still able to recombine the new LoxPsym variants, we conducted a fluorescent-based assay in yeast via genomic integration of a fluorescence cassette which was flanked by identical LoxPsym variants at both sites (FIGS. 3A and 3C). Recombination of functional LoxPsym variants enables the deletion of the fluorescence cassette. The fraction of non-fluorescent cells in the population after induction of Cre-mediated recombination, was used to determine the recombination efficiency of the new LoxPsym sites. To verify if this set-up is valid for estimation of the recombination efficiency, the dual-fluorescent-reporter system shown in FIG. 3A was used to assess the frequency of inversion/deletion over time. […] Recombination efficiencies largely altered between different LoxPsym variants (Table 1). 63 new LoxPsym variants were obtained with altering recombination efficiencies ranging from 13% to 89%.

B1: LoxPsym-TCA (dsDNA)
DNA 1: ATAACTTCGTATATCATATGATATACGAAGTTAT
DNA 2: ATAACTTCGTATATCATATGATATACGAAGTTAT
activity: 39.9%

B2: LoxPsym-CTA (dsDNA)
DNA 1: ATAACTTCGTATACTATATAGTATACGAAGTTAT
DNA 2: ATAACTTCGTATACTATATAGTATACGAAGTTAT
activity: 34.1%

B3: LoxPsym-CCA (dsDNA)
DNA 1: ATAACTTCGTATACCATATGGTATACGAAGTTAT
DNA 2: ATAACTTCGTATACCATATGGTATACGAAGTTAT
activity: 53.9%

B4: LoxPsym-GAA (dsDNA)
DNA 1: ATAACTTCGTATAGAATATTCTATACGAAGTTAT
DNA 2: ATAACTTCGTATAGAATATTCTATACGAAGTTAT
activity: 46.2%

B5: LoxPsym-GTA (dsDNA)
DNA 1: ATAACTTCGTATAGTATATACTATACGAAGTTAT
DNA 2: ATAACTTCGTATAGTATATACTATACGAAGTTAT
activity: 64.3%

B6: LoxPsym-CCT (dsDNA)
DNA 1: ATAACTTCGTATACCTTAAGGTATACGAAGTTAT
DNA 2: ATAACTTCGTATACCTTAAGGTATACGAAGTTAT
activity: 51.2%

B7: LoxPsym-GCA (dsDNA)
DNA 1: ATAACTTCGTATAGCATATGCTATACGAAGTTAT
DNA 2: ATAACTTCGTATAGCATATGCTATACGAAGTTAT
activity: 59.1%

B8: LoxPsym-TTT (dsDNA)
DNA 1: ATAACTTCGTATATTTTAAAATATACGAAGTTAT
DNA 2: ATAACTTCGTATATTTTAAAATATACGAAGTTAT
activity: 44.5%

B9: LoxPsym-TCG (dsDNA)
DNA 1: ATAACTTCGTATATCGTACGATATACGAAGTTAT
DNA 2: ATAACTTCGTATATCGTACGATATACGAAGTTAT
activity: 59%

B10: LoxPsym-TCT (dsDNA)
DNA 1: ATAACTTCGTATATCTTAAGATATACGAAGTTAT
DNA 2: ATAACTTCGTATATCTTAAGATATACGAAGTTAT
activity: 43.3%

B11: LoxPsym-CAA (dsDNA)
DNA 1: ATAACTTCGTATACAATATTGTATACGAAGTTAT
DNA 2: ATAACTTCGTATACAATATTGTATACGAAGTTAT
activity: 59.7%

B12: LoxPsym-TAA (dsDNA)
DNA 1: ATAACTTCGTATATAATATTATATACGAAGTTAT
DNA 2: ATAACTTCGTATATAATATTATATACGAAGTTAT
activity: 65.5%

B13: LoxPsym-GTG (dsDNA)
DNA 1: ATAACTTCGTATAGTGTACACTATACGAAGTTAT
DNA 2: ATAACTTCGTATAGTGTACACTATACGAAGTTAT
activity: 40.3%

B14: LoxPsym-CTT (dsDNA)
DNA 1: ATAACTTCGTATACTTTAAAGTATACGAAGTTAT
DNA 2: ATAACTTCGTATACTTTAAAGTATACGAAGTTAT
activity: 34.8%

B15: LoxPsym-GTT (dsDNA)
DNA 1: ATAACTTCGTATAGTTTAAACTATACGAAGTTAT
DNA 2: ATAACTTCGTATAGTTTAAACTATACGAAGTTAT
activity: 64.6%

B16: LoxPsym-CTG (dsDNA)
DNA 1: ATAACTTCGTATACTGTACAGTATACGAAGTTAT
DNA 2: ATAACTTCGTATACTGTACAGTATACGAAGTTAT
activity: 53.1%

B17: LoxPsym-AGC (dsDNA)
DNA 1: ATAACTTCGTATAAGCTAGCTTATACGAAGTTAT
DNA 2: ATAACTTCGTATAAGCTAGCTTATACGAAGTTAT
activity: 32.6%

B18: LoxPsym-AGT (dsDNA)
DNA 1: ATAACTTCGTATAAGTTAACTTATACGAAGTTAT
DNA 2: ATAACTTCGTATAAGTTAACTTATACGAAGTTAT
activity: 43.4%

B19: LoxPsym-CGT (dsDNA)
DNA 1: ATAACTTCGTATACGTTAACGTATACGAAGTTAT
DNA 2: ATAACTTCGTATACGTTAACGTATACGAAGTTAT
activity: 46.9%

B20: LoxPsym-TGA (dsDNA)
DNA 1: ATAACTTCGTATATGATATCATATACGAAGTTAT
DNA 2: ATAACTTCGTATATGATATCATATACGAAGTTAT
activity: 58.8%

B21: LoxPsym-AGG (dsDNA)
DNA 1: ATAACTTCGTATAAGGTACCTTATACGAAGTTAT
DNA 2: ATAACTTCGTATAAGGTACCTTATACGAAGTTAT
activity: 49.1%

B22: LoxPsym-ACA (dsDNA)
DNA 1: ATAACTTCGTATAACATATGTTATACGAAGTTAT
DNA 2: ATAACTTCGTATAACATATGTTATACGAAGTTAT
activity: 38.3%

B23: LoxPsym-AGA (dsDNA)
DNA 1: ATAACTTCGTATAAGATATCTTATACGAAGTTAT
DNA 2: ATAACTTCGTATAAGATATCTTATACGAAGTTAT
activity: 35.1%

B24: LoxPsym-GGG (dsDNA)
DNA 1: ATAACTTCGTATAGGGTACCCTATACGAAGTTAT
DNA 2: ATAACTTCGTATAGGGTACCCTATACGAAGTTAT
activity: 45.6%

B25: LoxPsym-ACG (dsDNA)
DNA 1: ATAACTTCGTATAACGTACGTTATACGAAGTTAT
DNA 2: ATAACTTCGTATAACGTACGTTATACGAAGTTAT
activity: 51.1%

B26: LoxPsym-ACC (dsDNA)
DNA 1: ATAACTTCGTATAACCTAGGTTATACGAAGTTAT
DNA 2: ATAACTTCGTATAACCTAGGTTATACGAAGTTAT
activity: 41.4%

B27: LoxPsym-CGA (dsDNA)
DNA 1: ATAACTTCGTATACGATATCGTATACGAAGTTAT
DNA 2: ATAACTTCGTATACGATATCGTATACGAAGTTAT
activity: 54.4%

B28: LoxPsym-GGC (dsDNA)
DNA 1: ATAACTTCGTATAGGCTAGCCTATACGAAGTTAT
DNA 2: ATAACTTCGTATAGGCTAGCCTATACGAAGTTAT
activity: 43.6%

B29: LoxPsym-AAG (dsDNA)
DNA 1: ATAACTTCGTATAAAGTACTTTATACGAAGTTAT
DNA 2: ATAACTTCGTATAAAGTACTTTATACGAAGTTAT
activity: 44.1%

B30: LoxPsym-CCC (dsDNA)
DNA 1: ATAACTTCGTATACCCTAGGGTATACGAAGTTAT
DNA 2: ATAACTTCGTATACCCTAGGGTATACGAAGTTAT
activity: 67.2%

B31: LoxPsym-ATA (dsDNA)
DNA 1: ATAACTTCGTATAATATATATTATACGAAGTTAT
DNA 2: ATAACTTCGTATAATATATATTATACGAAGTTAT
activity: 43.1%

B32: LoxPsym-GTC (dsDNA)
DNA 1: ATAACTTCGTATAGTCTAGACTATACGAAGTTAT
DNA 2: ATAACTTCGTATAGTCTAGACTATACGAAGTTAT
activity: 44.3%

B33: LoxPsym-TGG (dsDNA)
DNA 1: ATAACTTCGTATATGGTACCATATACGAAGTTAT
DNA 2: ATAACTTCGTATATGGTACCATATACGAAGTTAT
activity: 69.1%

B34: LoxPsym-GCC (dsDNA)
DNA 1: ATAACTTCGTATAGCCTAGGCTATACGAAGTTAT
DNA 2: ATAACTTCGTATAGCCTAGGCTATACGAAGTTAT
activity: 65.1%

B35: LoxPsym-ATT (dsDNA)
DNA 1: ATAACTTCGTATAATTTAAATTATACGAAGTTAT
DNA 2: ATAACTTCGTATAATTTAAATTATACGAAGTTAT
activity: 42.2%

B36: LoxPsym-AAC (dsDNA)
DNA 1: ATAACTTCGTATAAACTAGTTTATACGAAGTTAT
DNA 2: ATAACTTCGTATAAACTAGTTTATACGAAGTTAT
activity: 46%

B37: LoxPsym-ATC (dsDNA)
DNA 1: ATAACTTCGTATAATCTAGATTATACGAAGTTAT
DNA 2: ATAACTTCGTATAATCTAGATTATACGAAGTTAT
activity: 56.5%

B38: LoxPsym-TTC (dsDNA)
DNA 1: ATAACTTCGTATATTCTAGAATATACGAAGTTAT
DNA 2: ATAACTTCGTATATTCTAGAATATACGAAGTTAT
activity: 62.3%

B39: LoxPsym-CTC (dsDNA)
DNA 1: ATAACTTCGTATACTCTAGAGTATACGAAGTTAT
DNA 2: ATAACTTCGTATACTCTAGAGTATACGAAGTTAT
activity: 38.2%

B40: LoxPsym-GAC (dsDNA)
DNA 1: ATAACTTCGTATAGACTAGTCTATACGAAGTTAT
DNA 2: ATAACTTCGTATAGACTAGTCTATACGAAGTTAT
activity: 67.4%
